Experimental findings from PMC3630801 are described below.

The target of this test is TonB_(ΔTMD) L194C labeled with BODIPY FL (Escherichia coli) (UniProt P02929). Nature of the test: fluorescence polarisation. (In general: Fluorescence polarisation rises when a labelled molecule tumbles more slowly, as on binding a larger partner.)

What is called Kd is the constant that tells how readily two partners part at equilibrium. On to “BtuB with bound colicin E3 receptor-binding fragment (ColE3R) (from UniProt P06129 21-614; P00646 1-551) (complex)”, for which the Kd came to 1.5 µM.
